Columns and labels:
[1] = biological target: T1, 人B7-H4 (细胞表面B7-H4) (human) (UniProt Q7Z7D3); assay: flow cytometry on HCC1569 cells
T1 sequence (looked up): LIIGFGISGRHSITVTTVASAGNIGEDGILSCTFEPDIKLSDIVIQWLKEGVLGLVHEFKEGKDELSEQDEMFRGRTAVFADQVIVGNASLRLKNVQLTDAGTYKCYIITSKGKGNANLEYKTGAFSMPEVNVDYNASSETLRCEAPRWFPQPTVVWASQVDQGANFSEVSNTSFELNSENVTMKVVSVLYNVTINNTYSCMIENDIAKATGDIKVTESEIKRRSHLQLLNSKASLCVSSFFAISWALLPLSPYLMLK

[2] = biological target: T2, 重组人B7-H4蛋白(R&D Systems#6576-B7-050) (human) (UniProt Q7Z7D3); assay: BLI (Octet), antibody on anti-human Fc sensor, recombinant human B7-H4 as analyte, 25 °C
T2 sequence (looked up): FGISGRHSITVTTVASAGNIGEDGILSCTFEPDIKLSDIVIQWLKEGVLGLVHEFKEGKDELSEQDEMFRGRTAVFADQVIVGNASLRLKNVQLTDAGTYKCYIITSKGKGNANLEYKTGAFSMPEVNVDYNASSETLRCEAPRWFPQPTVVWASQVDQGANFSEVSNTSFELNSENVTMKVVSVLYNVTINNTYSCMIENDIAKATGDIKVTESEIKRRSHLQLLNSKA

[3] = biological target: T1, 人B7-H4 (细胞表面B7-H4) (human); assay: flow cytometry on MX-1 cells

EC50 [1]: 3.44 nM
K d, fold lower than that of B4-H4 2F9 [2]: > 100 fold
EC50 [3]: 4.9 nM
B1: 1D11抗体 (antibody, from another filing, V domains shown)
VH: QVQLQQSGAELVRPGTSVKMSCKASGYTFTSYWIGWAKQRPGHGFEWIGDIYPGGGYTNYNEKFKGKATLTADKSSSTAYMQFSSLTSEDSAIYYCARLDGSSYRGAMDSWGQGTSITVSS
VL: DIQMTQSPSSLSASLGGKVTITCKASQGFNKYVAWYQHKPGQCPRLLIHYTSTLQPGIPARFSGSGSGRDYSFSISNLEPEDSATYFCLQYGNLLYAFGGGTKLEIKR

Source: patent CN116917323A
